These results are taken from EP4692114A1, “CALCITONIN ANALOGUE, AND DERIVATIVE THEREOF AND USE THEREOF” (Hangzhou Sciwind Biosciences Co., Ltd., priority 2023, dated 2024).

T1: human amylin receptor (AMY3) on CHO-K1/Gal5/AMY3 cells (human, UniProt P30988 25-474; O60896 24-148)
T1 sequence (looked up) 1: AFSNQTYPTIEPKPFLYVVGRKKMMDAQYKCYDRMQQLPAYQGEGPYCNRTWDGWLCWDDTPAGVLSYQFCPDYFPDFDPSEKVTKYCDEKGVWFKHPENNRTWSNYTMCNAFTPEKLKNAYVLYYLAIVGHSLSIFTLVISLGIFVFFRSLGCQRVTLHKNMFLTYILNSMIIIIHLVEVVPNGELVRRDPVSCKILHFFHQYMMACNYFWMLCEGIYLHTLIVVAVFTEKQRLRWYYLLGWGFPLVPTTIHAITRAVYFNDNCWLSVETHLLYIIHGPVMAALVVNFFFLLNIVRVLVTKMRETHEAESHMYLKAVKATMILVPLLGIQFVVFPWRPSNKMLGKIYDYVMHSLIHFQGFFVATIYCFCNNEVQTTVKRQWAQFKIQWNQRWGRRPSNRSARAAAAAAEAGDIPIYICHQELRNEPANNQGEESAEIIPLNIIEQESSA
T1 sequence (looked up) 2: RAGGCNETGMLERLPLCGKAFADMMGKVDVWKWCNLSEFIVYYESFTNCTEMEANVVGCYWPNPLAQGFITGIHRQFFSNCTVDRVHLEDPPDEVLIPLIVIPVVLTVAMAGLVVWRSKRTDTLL

B1: calcitonin derivative M26 (peptide)
peptide: {C20 diacid-γGlu}-VSQLSTVVLGRLSQELHRLQDYPRTDVGSGSP-NH2
SMILES: CC(C)C[C@H](NC(=O)[C@H](CCCNC(=N)N)NC(=O)CNC(=O)[C@H](CC(C)C)NC(=O)[C@@H](NC(=O)[C@@H](NC(=O)[C@@H](NC(=O)[C@H](CO)NC(=O)[C@H](CC(C)C)NC(=O)[C@H](CCC(N)=O)NC(=O)[C@H](CO)NC(=O)[C@@H](NC(=O)CC[C@H](NC(=O)CCCCCCCCCCCCCCCCCCC(=O)O)C(=O)O)C(C)C)[C@@H](C)O)C(C)C)C(C)C)C(=O)N[C@@H](CO)C(=O)N[C@@H](CCC(N)=O)C(=O)N[C@@H](CCC(=O)O)C(=O)N[C@@H](CC(C)C)C(=O)N[C@@H](Cc1c[nH]cn1)C(=O)N[C@@H](CCCNC(=N)N)C(=O)N[C@@H](CC(C)C)C(=O)N[C@@H](CCC(N)=O)C(=O)N[C@@H](CC(=O)O)C(=O)N[C@@H](Cc1ccc(O)cc1)C(=O)N1CCC[C@H]1C(=O)N[C@@H](CCCNC(=N)N)C(=O)N[C@H](C(=O)N[C@@H](CC(=O)O)C(=O)N[C@H](C(=O)NCC(=O)N[C@@H](CO)C(=O)NCC(=O)N[C@@H](CO)C(=O)N1CCC[C@H]1C(N)=O)C(C)C)[C@@H](C)O
B2: calcitonin derivative M60 (peptide)
peptide: {C20 diacid}-D[AEEA][AEEA]ASQLSTAVLGRLSEELHRLQDYPRTDVGSGSP-NH2
SMILES: CC(C)C[C@H](NC(=O)[C@H](CCCNC(=N)N)NC(=O)CNC(=O)[C@H](CC(C)C)NC(=O)[C@@H](NC(=O)[C@H](C)NC(=O)[C@@H](NC(=O)[C@H](CO)NC(=O)[C@H](CC(C)C)NC(=O)[C@H](CCC(N)=O)NC(=O)[C@H](CO)NC(=O)[C@H](C)NC(=O)COCCOCCNC(=O)COCCOCCNC(=O)[C@H](CC(=O)O)NC(=O)CCCCCCCCCCCCCCCCCCC(=O)O)[C@@H](C)O)C(C)C)C(=O)N[C@@H](CO)C(=O)N[C@@H](CCC(=O)O)C(=O)N[C@@H](CCC(=O)O)C(=O)N[C@@H](CC(C)C)C(=O)N[C@@H](Cc1c[nH]cn1)C(=O)N[C@@H](CCCNC(=N)N)C(=O)N[C@@H](CC(C)C)C(=O)N[C@@H](CCC(N)=O)C(=O)N[C@@H](CC(=O)O)C(=O)N[C@@H](Cc1ccc(O)cc1)C(=O)N1CCC[C@H]1C(=O)N[C@@H](CCCNC(=N)N)C(=O)N[C@H](C(=O)N[C@@H](CC(=O)O)C(=O)N[C@H](C(=O)NCC(=O)N[C@@H](CO)C(=O)NCC(=O)N[C@@H](CO)C(=O)N1CCC[C@H]1C(N)=O)C(C)C)[C@@H](C)O
B3: calcitonin derivative M11 (peptide)
peptide: {C20 diacid-γGlu}-ASQLSTAVLGRLSSELHRLQDYPRTDVGSGSP-NH2
SMILES: CC(C)C[C@H](NC(=O)[C@H](CCCNC(=N)N)NC(=O)CNC(=O)[C@H](CC(C)C)NC(=O)[C@@H](NC(=O)[C@H](C)NC(=O)[C@@H](NC(=O)[C@H](CO)NC(=O)[C@H](CC(C)C)NC(=O)[C@H](CCC(N)=O)NC(=O)[C@H](CO)NC(=O)[C@H](C)NC(=O)CC[C@H](NC(=O)CCCCCCCCCCCCCCCCCCC(=O)O)C(=O)O)[C@@H](C)O)C(C)C)C(=O)N[C@@H](CO)C(=O)N[C@@H](CO)C(=O)N[C@@H](CCC(=O)O)C(=O)N[C@@H](CC(C)C)C(=O)N[C@@H](Cc1c[nH]cn1)C(=O)N[C@@H](CCCNC(=N)N)C(=O)N[C@@H](CC(C)C)C(=O)N[C@@H](CCC(N)=O)C(=O)N[C@@H](CC(=O)O)C(=O)N[C@@H](Cc1ccc(O)cc1)C(=O)N1CCC[C@H]1C(=O)N[C@@H](CCCNC(=N)N)C(=O)N[C@H](C(=O)N[C@@H](CC(=O)O)C(=O)N[C@H](C(=O)NCC(=O)N[C@@H](CO)C(=O)NCC(=O)N[C@@H](CO)C(=O)N1CCC[C@H]1C(N)=O)C(C)C)[C@@H](C)O
B4: calcitonin derivative M59 (peptide)
peptide: {C20 diacid-βAsp-AEEA-AEEA}-ASQLSTAVLGRLSEELHRLQDYPRTDVGSGSP-NH2
SMILES: CC(C)C[C@H](NC(=O)[C@H](CCCNC(=N)N)NC(=O)CNC(=O)[C@H](CC(C)C)NC(=O)[C@@H](NC(=O)[C@H](C)NC(=O)[C@@H](NC(=O)[C@H](CO)NC(=O)[C@H](CC(C)C)NC(=O)[C@H](CCC(N)=O)NC(=O)[C@H](CO)NC(=O)[C@H](C)NC(=O)COCCOCCNC(=O)COCCOCCNC(=O)C[C@H](NC(=O)CCCCCCCCCCCCCCCCCCC(=O)O)C(=O)O)[C@@H](C)O)C(C)C)C(=O)N[C@@H](CO)C(=O)N[C@@H](CCC(=O)O)C(=O)N[C@@H](CCC(=O)O)C(=O)N[C@@H](CC(C)C)C(=O)N[C@@H](Cc1c[nH]cn1)C(=O)N[C@@H](CCCNC(=N)N)C(=O)N[C@@H](CC(C)C)C(=O)N[C@@H](CCC(N)=O)C(=O)N[C@@H](CC(=O)O)C(=O)N[C@@H](Cc1ccc(O)cc1)C(=O)N1CCC[C@H]1C(=O)N[C@@H](CCCNC(=N)N)C(=O)N[C@H](C(=O)N[C@@H](CC(=O)O)C(=O)N[C@H](C(=O)NCC(=O)N[C@@H](CO)C(=O)NCC(=O)N[C@@H](CO)C(=O)N1CCC[C@H]1C(N)=O)C(C)C)[C@@H](C)O
B5: calcitonin derivative M36 (peptide)
peptide: {C20 diacid-γGlu}-KSQLSTEVLGRLSQELHRLQDYPRTDVGSGSP-NH2
SMILES: CC(C)C[C@H](NC(=O)[C@H](CCCNC(=N)N)NC(=O)CNC(=O)[C@H](CC(C)C)NC(=O)[C@@H](NC(=O)[C@H](CCC(=O)O)NC(=O)[C@@H](NC(=O)[C@H](CO)NC(=O)[C@H](CC(C)C)NC(=O)[C@H](CCC(N)=O)NC(=O)[C@H](CO)NC(=O)[C@H](CCCCN)NC(=O)CC[C@H](NC(=O)CCCCCCCCCCCCCCCCCCC(=O)O)C(=O)O)[C@@H](C)O)C(C)C)C(=O)N[C@@H](CO)C(=O)N[C@@H](CCC(N)=O)C(=O)N[C@@H](CCC(=O)O)C(=O)N[C@@H](CC(C)C)C(=O)N[C@@H](Cc1c[nH]cn1)C(=O)N[C@@H](CCCNC(=N)N)C(=O)N[C@@H](CC(C)C)C(=O)N[C@@H](CCC(N)=O)C(=O)N[C@@H](CC(=O)O)C(=O)N[C@@H](Cc1ccc(O)cc1)C(=O)N1CCC[C@H]1C(=O)N[C@@H](CCCNC(=N)N)C(=O)N[C@H](C(=O)N[C@@H](CC(=O)O)C(=O)N[C@H](C(=O)NCC(=O)N[C@@H](CO)C(=O)NCC(=O)N[C@@H](CO)C(=O)N1CCC[C@H]1C(N)=O)C(C)C)[C@@H](C)O
B6: calcitonin derivative M43 (peptide)
peptide: {C20 diacid-βAsp}-ASQLSTAVLGRLSDELHRLQDYPRTDVGSGSP-NH2
SMILES: CC(C)C[C@H](NC(=O)[C@H](CCCNC(=N)N)NC(=O)CNC(=O)[C@H](CC(C)C)NC(=O)[C@@H](NC(=O)[C@H](C)NC(=O)[C@@H](NC(=O)[C@H](CO)NC(=O)[C@H](CC(C)C)NC(=O)[C@H](CCC(N)=O)NC(=O)[C@H](CO)NC(=O)[C@H](C)NC(=O)C[C@H](NC(=O)CCCCCCCCCCCCCCCCCCC(=O)O)C(=O)O)[C@@H](C)O)C(C)C)C(=O)N[C@@H](CO)C(=O)N[C@@H](CC(=O)O)C(=O)N[C@@H](CCC(=O)O)C(=O)N[C@@H](CC(C)C)C(=O)N[C@@H](Cc1c[nH]cn1)C(=O)N[C@@H](CCCNC(=N)N)C(=O)N[C@@H](CC(C)C)C(=O)N[C@@H](CCC(N)=O)C(=O)N[C@@H](CC(=O)O)C(=O)N[C@@H](Cc1ccc(O)cc1)C(=O)N1CCC[C@H]1C(=O)N[C@@H](CCCNC(=N)N)C(=O)N[C@H](C(=O)N[C@@H](CC(=O)O)C(=O)N[C@H](C(=O)NCC(=O)N[C@@H](CO)C(=O)NCC(=O)N[C@@H](CO)C(=O)N1CCC[C@H]1C(N)=O)C(C)C)[C@@H](C)O

*1 amine or outer side, *2 acyl side, *3 side chain or, on linkers, in order; H or OH if unused. [ ]: non-standard residue; d: D form. The star is where a group is joined. C20 diacid = O=C(O)CCCCCCCCCCCCCCCCCCC(=O)*; γGlu = O=C(O)[C@H](CCC(=O)[*:2])N[*:1]; βAsp = O=C(O)[C@H](CC(=O)[*:2])N[*:1]; AEEA = NCCOCCOCC(=O)O

This experiment has as its target T1, human amylin receptor (AMY3) on …. Description: cell-based or functional assay.
With B1, the “EC50/nM, CRE-luciferase in amylin receptor/CRE-luc CHO cells” value came out at 0.079 nM.
For B2 the value was 0.016 nM.
For B3 the value was 0.017 nM; for B4, 0.017 nM; for B5, 0.032 nM.
Consider B6, for which the “EC50/nM, CRE-luciferase in amylin receptor/CRE-luc CHO cells” value was 0.017 nM.
